± gives the uncertainty stated by the source.
Assay: protein stability index of a GFP-peptide fusion (yeast GPS) (PSI 1-4); higher = more stable; sorted into four equal gates, so the index is relative within each strain
Outline: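 For each peptide, the protein stability index sums the read frequency in every gate after multiplying it by the gate number. Read frequencies came from plasmids that were PCR-amplified from each gate and Illumina-sequenced, with reads assigned to strains by barcodes. The gates were four equal bins of GFP/Cherry fluorescence ratio applied to mid-log yeast in leucine-free medium carrying a pooled library of tiled 17-residue yeast protein peptides fused downstream of GFP on a Cherry-expressing plasmid.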

Sequence | protein stability index (doa10∆) | protein stability index (pdr5∆) | protein stability index (san1∆) | protein stability index (ubr1∆)
TTVITVFLEFSLNFIPI [YML103C/NUP188] | 1.42 ± 0.038 | 1.33 ± 0.032 | 1.83 ± 0.064 | 1.58 ± 0.023
LLNVSVNITKFSKFERS [SKI6] | 2.32 ± 0.075 | 2.49 ± 0.049 | 2.7 ± 0.06 | 2.44 ± 0.039
KSLAMEHKSQVVLYNYY [CSN12] | 1.19 ± 0.053 | 1.34 ± 0.071 | 1.32 ± 0.11 | 1.55 ± 0.035
PQYINYSSIPSLQDSII [SSN2] | 2.97 ± 0.13 | 2.79 ± 0.12 | 2.9 ± 0.21 | 3.16 ± 0.086
TKPSLRKASCIWLLSYI [ECM29] | 1.75 ± 0.054 | 1.88 ± 0.051 | 1.86 ± 0.077 | 1.86 ± 0.038
LKIIHTSVWAGQKRLSQ [PRP8] | 1.36 ± 0.15 | 1.31 ± 0.12 |  | 1.48 ± 0.23
ILSDSPLELSAPIGKHY [DIS3] | 1.71 ± 0.13 |  |  | 2.39 ± 0.17
VQLLSKSHNAHVRCGTA [RPN2] | 1.44 ± 0.071 | 1.5 ± 0.042 | 1.57 ± 0.08 | 1.72 ± 0.048
HINKKSQLDLFLRTMKL [GRR1] | 1.94 ± 0.067 | 2.33 ± 0.076 | 1.21 ± 0.11 | 2.02 ± 0.1
EKRHKNVPVHVSPAFRV [RPS11A] | 1.8 ± 0.051 | 2.72 ± 0.077 | 2.9 ± 0.07 | 2.75 ± 0.053
SKFHFSWNESEDTLSGY [PRP28] | 3.07 ± 0.12 | 3.19 ± 0.12 | 3.2 ± 0.075 | 3.47 ± 0.058
DSVEFIFQAKRNSNPEN [RPN10] | 2.75 ± 0.087 | 2.73 ± 0.089 | 3.2 ± 0.12 | 2.69 ± 0.083
LLREYDILSQILYGLVD [YJL039C/NUP192] | 2.49 ± 0.081 | 2.06 ± 0.12 | 2.07 ± 0.11 | 2.19 ± 0.064
DTGTLDTKSVVGLVMFS [RPN2] | 2.67 ± 0.083 | 2.66 ± 0.084 | 2.91 ± 0.075 | 2.42 ± 0.069
IAMPKRRMAFKPFGSAK [YLR335W/NUP2] | 2.86 ± 0.052 | 3.09 ± 0.064 | 3.11 ± 0.043 | 2.73 ± 0.044
FVHSVKKFLRVRIFTKI [SRB4] | 2.21 ± 0.082 | 2.07 ± 0.072 | 1.22 ± 0.12 | 2.07 ± 0.059
EPLTEIKNVIVSNRVAA [RPP0] | 1.6 ± 0.076 | 2.1 ± 0.062 | 1.77 ± 0.11 | 1.95 ± 0.07
SVQINVAKVDEEGRAIP [RPS21A] | 3.28 ± 0.065 | 3.23 ± 0.089 | 3.31 ± 0.048 | 3.32 ± 0.043
KPDVTYADVGGLDMQKQ [RPT3] |  | 3.69 ± 0.14 | 3.47 ± 0.24 | 3.35 ± 0.21
SVPLVIGQFLEPIDQNT [RPT3] | 1.88 ± 0.11 | 2.77 ± 0.095 | 2.95 ± 0.13 | 2.71 ± 0.067
SNLSPDLKFKRHKNKHI [DSN1] | 2.71 ± 0.1 | 2.58 ± 0.15 | 2.28 ± 0.077 | 2.17 ± 0.13
EKDAKINKLMEKDFQVN [SIR4] | 3.22 ± 0.067 | 3.44 ± 0.07 | 3.3 ± 0.07 | 3.47 ± 0.055
DEEMAVLTRMDEDRSKK [SNF2] | 3.17 ± 0.071 | 2.66 ± 0.083 | 2.42 ± 0.092 | 2.57 ± 0.072
ARLPPRATNCRKRKCGH [RPL40A] | 2.98 ± 0.094 | 3.3 ± 0.15 | 3.2 ± 0.1 | 3.14 ± 0.11
RDYLVDTLKLRENLHIL [RRP6] | 3.52 ± 0.098 | 3.29 ± 0.096 | 3.4 ± 0.069 | 3.29 ± 0.084
VEIAFLFRAIYLYCLDN [YCG1] | 1.54 ± 0.065 | 1.3 ± 0.054 | 1.21 ± 0.11 | 1.2 ± 0.05
PTFSTHAQLLLSDRITG [PRP8] | 1.7 ± 0.033 | 1.87 ± 0.036 | 1.57 ± 0.051 | 1.95 ± 0.031

Sequence | protein stability index (doa10∆) | protein stability index (pdr5∆) | protein stability index (san1∆) | protein stability index (ubr1∆)
RTLRRKGDINPEVSMIR [RPB2] | 3.11 ± 0.16 | 3.39 ± 0.13 | 2.79 ± 0.21 | 3.12 ± 0.076
KLDTEVKNTNANPVVAT [SWP82] | 1.94 ± 0.069 | 2.38 ± 0.082 | 2.54 ± 0.08 | 1.86 ± 0.05
NGKEVPLAKIYLEENKS [MED1] | 3.2 ± 0.1 | 3.27 ± 0.071 | 3.12 ± 0.075 | 3.21 ± 0.063
GNPGRIRVLFKENGQLI [SEC65] | 2.38 ± 0.055 | 2.24 ± 0.072 | 2.33 ± 0.11 | 2.44 ± 0.059
QNVTSETHSKKRKKEAN [ITC1] | 2.92 ± 0.075 | 3.02 ± 0.075 | 2.94 ± 0.041 | 3.08 ± 0.073
ANLRVLNSYWVNQDSTY [RPL15A] | 2.62 ± 0.072 | 2.23 ± 0.067 | 2.78 ± 0.058 | 2.37 ± 0.064
CLDRCKEQYNRYRDLMI [MTR3] | 2.64 ± 0.074 | 2.62 ± 0.046 | 2.69 ± 0.054 | 2.88 ± 0.063
RASKALIERYYPKLTLD [RPS17A] |  | 2.51 ± 0.14 |  | 2.37 ± 0.25
QNNFHVLIDLLNWFRTT [RGR1] | 1.99 ± 0.064 | 2.17 ± 0.074 | 2.67 ± 0.053 | 2.47 ± 0.09
ELPTQLALEIIVRPAKG [RRP46] | 1.52 ± 0.041 | 1.57 ± 0.044 | 1.49 ± 0.079 | 1.84 ± 0.045
KRQYVKQFLTKDLKFPL [RPL20A] | 3 ± 0.055 | 2.94 ± 0.061 | 2.76 ± 0.063 | 2.83 ± 0.04
KKSGSLTFNSKNIQSKD [FAS2] | 3.2 ± 0.12 | 3.29 ± 0.13 | 3.26 ± 0.13 | 3.27 ± 0.075
QDIYYLAQTLKLWRKIA [RRI2] | 2.04 ± 0.057 | 2.17 ± 0.046 | 1.88 ± 0.07 | 1.63 ± 0.047
CYEKVLESINEGNQIIV [BRR2] | 3.09 ± 0.11 | 2.59 ± 0.11 | 2.05 ± 0.093 | 2.34 ± 0.1
SQWNDSSIDKIEDRDFL [SIR3] | 2.99 ± 0.17 | 3.21 ± 0.27 | 3.23 ± 0.28 | 3.32 ± 0.15
KWKPVLSHIVYFLVLSP [RPN5] | 1.39 ± 0.033 | 1.25 ± 0.031 | 1.2 ± 0.057 | 1.15 ± 0.025
FLRTQFLKLYVLVKWTR [RGR1] | 1.46 ± 0.084 | 1.95 ± 0.065 | 1.63 ± 0.11 | 1.56 ± 0.06
RQVYKPVLDNPFTNEAH [POP3] | 2.47 ± 0.073 | 2.67 ± 0.067 | 2.46 ± 0.082 | 2.88 ± 0.04
LISNAIYGKKTMVIQDE [ECM29] | 1.58 ± 0.25 | 1.83 ± 0.27 |  | 1.4 ± 0.14
LDTRKELWRKEQKLQTV [SMC3] | 1.79 ± 0.069 | 2.58 ± 0.081 | 2.83 ± 0.16 | 2.99 ± 0.058
VHPIPDVAFADGGKTLR [YMR129W/POM152] | 2.5 ± 0.064 | 2.68 ± 0.086 | 2.66 ± 0.084 | 2.63 ± 0.051
TFEQFKDTIVKEAEDKT [RPC37] |  |  |  | 2.43 ± 0.29
NSNKQAVAILADDEKSD [BRR2] | 3.04 ± 0.091 | 3.07 ± 0.071 | 3.03 ± 0.086 | 2.88 ± 0.044
LKAKNQEEEGELEHLTK [DSN1] | 3.42 ± 0.076 | 3.35 ± 0.066 | 3.31 ± 0.047 | 3.39 ± 0.047
DDENNPSHYPHPYEYEI [RRP6] | 3.03 ± 0.064 | 2.89 ± 0.063 | 2.74 ± 0.054 | 2.89 ± 0.029
PASDDILDNINHNGSAL [ITC1] | 2.9 ± 0.1 | 3.21 ± 0.096 | 3.06 ± 0.095 | 3.29 ± 0.078
